{
  "source": "patent US20210238283A1",
  "about": "(Y BIOLOGICS, published 2021)",
  "binders": {"B1": {"name": "human anti-LAG-3 monoclonal antibody 1E09 (antibody, V domains shown)", "VH": "QVQLVQSGGDLVKPGGSLRLSCAASGFSFSDHYMNWIRQAPGKGLEWVAYIDTSATYIYYADSVKGRFTISRDNAKNSLYLQMNSLRAEDTAVYYCARDNWGSLDYWGQGALVTVSS", "VL": "DIQMTQSPSSLSPSVGDRVTITCQASQEISIYLNWYQQKPGKAPKLLIYDASNLETGVPSRFSGSGSGTDFTLTISSLQPEDFATYYCQQTYITPYTFGQGTKLDIK", "notes": "Tested as full IgG converted from scFv; also called LAG-3-1E09; Parent (1E09)"}},
  "key": {"[1]": {"molecular_target": "T1, recombinant human LAG-3 extracellular domain fused with mouse Fc (hLAG-3-mFc) (human, UniProt P18627 29-450)", "T1 construct": "range 29-450; Made in HEK293F cells; also called human LAG-3 antigen; wild-type (WT) LAG-3; not shown: mouse Fc (mFc) at the carboxy terminal", "T1 sequence (looked up)": "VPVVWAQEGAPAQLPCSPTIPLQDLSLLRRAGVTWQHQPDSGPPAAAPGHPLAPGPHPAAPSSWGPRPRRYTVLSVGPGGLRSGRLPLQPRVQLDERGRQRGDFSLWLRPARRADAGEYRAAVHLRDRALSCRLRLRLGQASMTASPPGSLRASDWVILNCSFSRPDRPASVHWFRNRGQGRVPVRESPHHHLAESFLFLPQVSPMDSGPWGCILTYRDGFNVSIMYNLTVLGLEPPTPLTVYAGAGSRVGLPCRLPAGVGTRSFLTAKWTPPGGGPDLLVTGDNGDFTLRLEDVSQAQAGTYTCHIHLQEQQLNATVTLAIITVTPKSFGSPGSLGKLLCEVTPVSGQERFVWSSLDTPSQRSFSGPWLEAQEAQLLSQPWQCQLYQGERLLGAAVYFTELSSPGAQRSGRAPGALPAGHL", "test": "BLI (Octet QKe), 1:1 global fit", "description": "(§1) After stabilization for 10 minutes in a buffer (#18-1042, Fortebio Inc.), immobilized antigen or antibody was washed out for 5 minutes with the buffer. The antibody or antigen desired for binding was prepared at different concentrations (0.94-60 nM) in a 96-well plate (#655209, Greiner Bio-One, USA) and subjected to the association reaction for 10 minutes followed by dissociation reaction for 10 minutes or 30 minutes."}, "[2]": {"molecular_target": "T2, recombinant mouse LAG-3 fused with mouse Fc (mLAG-Fc) (mouse, UniProt Q61790 24-442, limits assumed)", "T2 construct": "also called mouse LAG-3 antigen; not shown: mouse Fc (mFc) at the carboxy terminal", "T2 sequence (looked up)": "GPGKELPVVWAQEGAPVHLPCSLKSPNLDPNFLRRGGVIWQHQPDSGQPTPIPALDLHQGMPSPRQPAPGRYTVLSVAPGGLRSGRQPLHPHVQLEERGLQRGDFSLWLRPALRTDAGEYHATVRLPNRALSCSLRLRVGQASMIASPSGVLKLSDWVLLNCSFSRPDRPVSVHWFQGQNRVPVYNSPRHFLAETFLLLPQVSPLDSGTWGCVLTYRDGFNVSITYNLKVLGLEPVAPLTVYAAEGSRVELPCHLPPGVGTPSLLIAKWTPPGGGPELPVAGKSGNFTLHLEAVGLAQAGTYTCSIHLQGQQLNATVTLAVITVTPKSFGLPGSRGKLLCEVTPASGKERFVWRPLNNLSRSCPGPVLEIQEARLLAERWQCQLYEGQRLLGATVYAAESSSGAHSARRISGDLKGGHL", "test": "BLI (Octet QKe), 1:1 global fit", "description": "as §1"}, "[3]": {"molecular_target": "T3, recombinant monkey LAG-3 fused with mouse Fc (MrhLAG-3-mFc) (monkey)", "T3 construct": "also called monkey LAG-3 antigen", "test": "BLI (Octet QKe), 1:1 global fit", "description": "as §1"}, "[4]": {"molecular_target": "T1, recombinant human LAG-3 extracellular …", "test": "flow cytometry, inhibition of LAG-3-mFc binding to Raji cells (MHC class II)", "description": "After that, the antigen-antibody mixture was reacted with the prepared cells for 30 minutes at 4° C. […] After washing them in the same manner as above and suspending them in 0.2 ml PBS containing 2% FBS, analysis was made using CytoFLEX flow cytometer (Beckman coulter, USA)"}, "[5]": {"molecular_target": "T4, human LAG-3 overexpressed on cells (human, UniProt P18627 23-525)", "T4 sequence (looked up)": "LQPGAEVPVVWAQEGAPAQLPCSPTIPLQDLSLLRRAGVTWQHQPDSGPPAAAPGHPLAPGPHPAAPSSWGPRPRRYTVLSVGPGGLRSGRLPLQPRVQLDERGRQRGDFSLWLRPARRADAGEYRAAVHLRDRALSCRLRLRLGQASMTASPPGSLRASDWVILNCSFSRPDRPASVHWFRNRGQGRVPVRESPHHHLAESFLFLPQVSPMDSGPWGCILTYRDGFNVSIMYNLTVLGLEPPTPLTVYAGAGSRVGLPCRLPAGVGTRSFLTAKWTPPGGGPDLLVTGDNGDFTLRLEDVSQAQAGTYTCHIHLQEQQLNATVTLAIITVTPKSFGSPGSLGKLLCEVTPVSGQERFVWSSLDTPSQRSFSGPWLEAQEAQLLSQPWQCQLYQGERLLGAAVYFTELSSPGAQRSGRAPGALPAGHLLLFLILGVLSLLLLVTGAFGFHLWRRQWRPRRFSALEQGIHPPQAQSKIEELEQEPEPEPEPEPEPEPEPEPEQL", "test": "cell-based or functional assay"}, "[6]": {"molecular_target": "T3, recombinant monkey LAG-3 fused with …", "test": "Octet biolayer interferometry, 1:1 global fit", "description": "as §1"}, "[7]": {"molecular_target": "T4, human LAG-3 overexpressed on cells", "test": "cell-based or functional assay", "remark": "listed apart in the source"}, "[8]": {"molecular_target": "T5, mouse LAG-3 overexpressed on HEK293E cells (mouse, UniProt Q61790 24-521)", "T5 construct": "whole, on cells; also called HEK293E-mLAG3; mLAG3 (Mouse)", "T5 sequence (looked up)": "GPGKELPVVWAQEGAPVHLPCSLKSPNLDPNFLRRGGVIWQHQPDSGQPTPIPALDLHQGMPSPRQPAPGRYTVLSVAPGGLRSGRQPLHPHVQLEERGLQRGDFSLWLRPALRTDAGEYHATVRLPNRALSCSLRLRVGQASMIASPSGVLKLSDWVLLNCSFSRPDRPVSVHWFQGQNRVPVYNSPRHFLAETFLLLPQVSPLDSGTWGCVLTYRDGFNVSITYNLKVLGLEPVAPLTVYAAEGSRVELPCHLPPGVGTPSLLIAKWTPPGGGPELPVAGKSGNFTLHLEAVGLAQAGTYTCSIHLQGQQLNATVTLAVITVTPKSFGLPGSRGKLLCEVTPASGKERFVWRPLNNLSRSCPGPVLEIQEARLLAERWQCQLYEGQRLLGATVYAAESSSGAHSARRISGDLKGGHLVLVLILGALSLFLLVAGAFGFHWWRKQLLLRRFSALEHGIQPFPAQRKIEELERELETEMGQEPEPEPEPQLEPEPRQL", "test": "flow cytometry, HEK293E cells overexpressing mouse LAG-3", "description": "After that, the cells were washed three times with PBS containing 2% FBS and then subjected to the reaction for 30 minutes at 4° C. with anti-human IgG antibody (#FI-3000, Vectorlabs) linked with FITC fluorescent. The cells were washed by the same washing process as above followed by suspension in 0.2 ml PBS containing 2% FBS. The cells were then analyzed by FACSCanto II flow cytometer."}},
  "note": "Several values for one entry are separate records, joined by “and”; a condition that tells them apart may be missing. Equal values may be shown once.",
  "data": [
    {"binder": "B1", "values": [
      {"measurement": "Kd", "setting": "[1]", "value": 91.8, "unit": "pM"},
      {"measurement": "Kd", "setting": "[2]", "value": 596, "unit": "pM"},
      {"measurement": "Kd", "setting": "[3]", "value": 328, "unit": "pM"},
      {"measurement": "IC50", "setting": "[4]", "value": 25100, "unit": "pM"},
      {"measurement": "EC50 (µg/ml), LAG3/MHC class II Blockade bioassay", "setting": "[5]", "value": "0.0688 µg/mL and 0.186 µg/mL"},
      {"measurement": "koff", "setting": "[6]", "value": "6.08e-05", "unit": "s⁻¹"},
      {"measurement": "kon", "setting": "[6]", "value": 185000, "unit": "M⁻¹ s⁻¹"},
      {"measurement": "EC50 value representing the capacity of recovering the inhibition", "setting": "[7]", "value": 0.0578, "unit": "µg/mL"},
      {"measurement": "activity against the control antibody (fold)", "setting": "[7]", "value": "~2.9", "unit": "times"},
      {"measurement": "EC50", "setting": "[8]", "value": 1.5, "unit": "µg/mL"}
    ]}
  ]
}
